Patent publication US20240382677A1 (Regeneron, published 2024)

Columns and labels:
[1] = biological target: T1, monkey PD-1 with mFc (monkey PD-1-mFc) (monkey); test: SPR 25C, mAb captured
T1 construct: also called monkey PD-1 dimer; MfPD-1 dimer
T1 chain: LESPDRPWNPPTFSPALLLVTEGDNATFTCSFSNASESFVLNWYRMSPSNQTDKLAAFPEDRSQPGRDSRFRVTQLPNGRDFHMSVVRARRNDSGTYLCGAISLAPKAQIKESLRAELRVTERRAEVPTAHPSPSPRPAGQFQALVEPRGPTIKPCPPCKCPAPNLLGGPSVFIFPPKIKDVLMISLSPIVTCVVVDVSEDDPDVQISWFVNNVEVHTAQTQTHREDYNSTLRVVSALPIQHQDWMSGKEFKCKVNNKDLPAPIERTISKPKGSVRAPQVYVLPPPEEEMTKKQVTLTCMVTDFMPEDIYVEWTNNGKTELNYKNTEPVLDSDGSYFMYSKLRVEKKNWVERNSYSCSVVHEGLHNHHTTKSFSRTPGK
Experimental: (§1) Binding association and dissociation rate constants (ka and kd, respectively), equilibrium dissociation constants and dissociation half-lives (KD and t½, respectively) for antigen binding to purified anti-PD1 antibodies were determined using a real-time surface plasmon resonance biosensor assay on a Biacore 4000 or Biacore T200 instrument. […] Experiments were performed at 25° C. and 37° C. Kinetic association (ka) and dissociation (kd) rate constants were determined by processing and fitting the data to a 1:1 binding model using Scrubber 2.0c curve fitting software. Binding dissociation equilibrium constants (KD) and dissociative half-lives (t½) were then calculated from the kinetic rate constants as: KD (M)=kd/ka and t½ (min)=[ln 2/(60*kd)].

[2] = biological target: T1, monkey PD-1 with mFc (monkey PD-1-mFc); test: SPR 37C, mAb captured;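 also: Real-time binding of antigen to purified anti-PD-1 antibodies, measured by surface plasmon resonance on a Biacore 4000 or T200 instrument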
Experimental: as §1

[3] = biological target: recombinant human PD-1 expressed with a C-terminal human IgG1 Fc tag (hPD-1-hFc) (human); test: SPR Biacore 3000, captured hPD-L1-mFc
Experimental: Next, inhibition studies for anti-PD-1 monoclonal antibodies expressed with human Fc were performed on a Biacore 3000 instrument. […] The real-time binding responses were monitored during the entire course of the experiment and the binding response at the end of every step was recorded.

[4] = biological target: T2, recombinant human PD-1 dimer expressed with a C-terminal mouse IgG2a Fc tag (hPD-1-mFc) (human); test: BLI Octet Red 96, captured hPD-L1-hFc
T2 construct: also called human PD-1-mFc
Experimental: Inhibition studies for anti-PD-1 monoclonal antibodies expressed with a mouse Fc were performed on an Octet Red 96 instrument. […] The biosensors were washed in Octet HBST buffer in between each step of the experiment. The real-time binding responses were monitored during the entire course of the experiment and the binding response at the end of every step was recorded.

Chain of recombinant human PD-1 expressed with a C-terminal human IgG1 Fc tag (hPD-1-hFc) (human) (chain, as listed by the source limits assumed): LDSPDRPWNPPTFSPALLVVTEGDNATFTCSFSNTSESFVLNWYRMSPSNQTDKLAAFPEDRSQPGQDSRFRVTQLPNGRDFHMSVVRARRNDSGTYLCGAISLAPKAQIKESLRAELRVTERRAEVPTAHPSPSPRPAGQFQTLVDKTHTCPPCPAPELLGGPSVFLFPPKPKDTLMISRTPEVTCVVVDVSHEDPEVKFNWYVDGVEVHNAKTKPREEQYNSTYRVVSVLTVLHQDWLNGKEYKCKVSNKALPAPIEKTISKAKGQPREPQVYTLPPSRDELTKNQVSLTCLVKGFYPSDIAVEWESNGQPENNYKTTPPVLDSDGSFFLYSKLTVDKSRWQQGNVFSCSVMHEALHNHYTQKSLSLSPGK

B1: H4xH8999P (antibody, V domains shown)
VH: QLQLQESGPGLVQPSETLSLTCTVSGDSISSTAYHWDWIRQPPGKGLEWIGTITYNGNTYFNPSLKSRVTISVDTSKNQFSLKLLSMTAAETAVFYCARHLGYNSDFFPFDFWGQGTLVTVSS
VL: not shown
notes: human IgG4 Fc with 2 or more amino acid changes (US20100331527)
- 100 nM Monkey PD-1-mFc Bound [1]: 128 RU
- t½ [1]: 100 min
- 100 nM Monkey PD-1-mFc Bound [2]: 83 RU
- t½ [2]: 23 min

B2: H4xH9008P (antibody, V domains shown)
VH: EVQLVESGGGLVRPGGSLRLSCAASGFTFSTYAMAWVRQTPGKGLEGVSAIGGSGDSTYYVDSVKGRFTISRDNSKSTLFLQMNSLRAEDTAVYYCVKVRNYDGSFDIWGQGTMVTVSS
VL: not shown
notes: as for B1
- t½ [1]: 200 min
- 100 nM Monkey PD-1-mFc Bound [2]: 98 RU

B3: H4H9068P2 (antibody, V domains shown)
VH: EVQLVESGGGLVQRGGSLRLSCAASGFSFSSYAMNWVRQAPGKGLEWVSTISDSGGSTYYADSVKGRFTISRDNSKNTLSLQMNSLRAEDTAVYYCAKDQGGSYPYYFHYWGQGTLVTVSS
VL: not shown
- 100 nM Monkey PD-1-mFc Bound [1]: 17 RU
- t½ [1]: 4 min
- 100 nM Monkey PD-1-mFc Bound [2]: 6 RU
- t½ [2]: 1.1 min
- % Blocking [3]: -265%
- binding of the mixture of 100 nM hPD-1-hFc and 500 nM antibody [3]: 365 RU

B4: H4H7798N (antibody, human IgG4 S228P, kappa, V domains shown)
VH: EVQLLESGGVLVQPGGSLRLSCAASGFTFSNFGMTWVRQAPGKGLEWVSGISGGGRDTYFADSVKGRFTISRDNSKNTLYLQMNSLKGEDTAVYYCVKWGNIYFDYWGQGTLVTVSS
VL: DIQMTQSPSSLSASVGDSITITCRASLSINTFLNWYQQKPGKAPNLLIYAASSLHGGVPSRFSGSGSGTDFTLTIRTLQPEDFATYYCQQSSNTPFTFGPGTVVDFRR
notes: human IgG4 Fc; also called REGN2810; cemiplimab
- 100 nM Monkey PD-1-mFc Bound [1]: 93 RU
- t½ [1]: 188 min
- 100 nM Monkey PD-1-mFc Bound [2]: 88 RU
- t½ [2]: 91 min

B5: H2aM7798N (antibody, mouse IgG2a, V domains shown)
VH: EVQLLESGGVLVQPGGSLRLSCAASGFTFSNFGMTWVRQAPGKGLEWVSGISGGGRDTYFADSVKGRFTISRDNSKNTLYLQMNSLKGEDTAVYYCVKWGNIYFDYWGQGTLVTVSS
VL: DIQMTQSPSSLSASVGDSITITCRASLSINTFLNWYQQKPGKAPNLLIYAASSLHGGVPSRFSGSGSGTDFTLTIRTLQPEDFATYYCQQSSNTPFTFGPGTVVDFR
notes: mouse IgG2a Fc; human variable regions; also called H2M7798N
- binding of the mixture of 100 nM hPD-1-mFc and 500 nM antibody [4]: 0.01 nm

B6: H4H7795N2 (antibody, human IgG4 S228P, kappa, V domains shown)
VH: EVQVVESGGGLVEPGRSLRLSCKASGFTFDDYAMHWVRQTPGKALEWVSGISWSGNNIGYADSVKGRFTISKDDAKNSLYLQMNSLRPEDTALYYCTKDISITGTLDAFDVWGQGTMVTVSS
VL: DIQMTQSPISVSASVGDRVTITCRASQGISNWLAWYQQKPGIAPKLLIYSASSLQSGVPSRFRGSGSGTDFTLTIGSLQPEDFATYYCQQAHSFPLTFGGGTKVEIKR
notes: human IgG4 Fc
- 100 nM Monkey PD-1-mFc Bound [1]: 60 RU
- t½ [1]: 116 min
- 100 nM Monkey PD-1-mFc Bound [2]: 47 RU
- t½ [2]: 40 min

B7: H2aM7795N (antibody, mouse IgG2a, V domains shown)
VH: EVQVVESGGGLVEPGRSLRLSCKASGFTFDDYAMHWVRQTPGKALEWVSGINWSGNNIGYADSVKGRFTISKDDAKNSLYLQMNSLRPEDTALYYCTKDISITGTLDAFDVWGQGTMVTVSS
VL: DIQMTQSPISVSASVGDRVTITCRASQGISNWLAWYQQKPGIAPKLLIYSASSLQSGVPSRFRGSGSGTDFTLTIGSLQPEDFATYYCQQAHSFPLTFGGGTKVEIK
notes: mouse IgG2a Fc; human variable regions; also called H2M7795N
- binding of the mixture of 100 nM hPD-1-mFc and 500 nM antibody [4]: -0.01 nm

B8: H4xH9045P (antibody, V domains shown)
VH: EVQLVESGGGLVQPGRSLRLSCAASGFTFDDYDMHWVRQAPGKGLEWVSGSGWNRGSLGYADSVKGRFTISRDNAKKSLYLQMNSVRVEDTALYYCAKGFVVVSAAYFDYWGQGTLVTVSS
VL: not shown
- 100 nM Monkey PD-1-mFc Bound [1]: 78 RU
- t½ [1]: 69 min
- 100 nM Monkey PD-1-mFc Bound [2]: 65 RU
- t½ [2]: 8 min

B9: H4H9057P2 (antibody, V domains shown)
VH: EVQLVESGGGLVQSGRSLRLSCAASGFTFDDYAMHWVRQPPGKGLEWVSGINWNRGRTGYADSVKGRFTISRDNAKNSLYLQMNDLRVEDTALYYCAKAEQWLDEGYFDYWGQGTLVTVSS
VL: not shown
- 100 nM Monkey PD-1-mFc Bound [1]: 75 RU
- Kd [1]: 2.96 nM
- t½ [1]: 38 min
- 100 nM Monkey PD-1-mFc Bound [2]: 28 RU
- t½ [2]: 2.4 min

B10: H1M7789N (antibody, mouse IgG1, V domains shown)
VH: EVQLLESGGGLVQPGGSLRLSCSASGFTFSSYTMNWVRQAPGKGLEWVSGISDTGGNTYYTDSVKGRFTVSRDNSKNTLSLQMNSLRAEDTAVYYCAKDQGGSYPYYFHYWGQGSLVTVSS
VL: DIQMTQSPSSLSASVGDRVTITCRASQSISSYLIWYQQKPGTAPKFLIYAASSLQSGVPSRFSGCGSGTDFTLTISSLQPEDFATYYCQQSYSTPPITFGQGTRLEIK
notes: mouse IgG1 Fc; human variable regions; also called H1M7789W
- binding of the mixture of 100 nM hPD-1-mFc and 500 nM antibody [4]: 0.05 nm

B11: H4xH9037P (antibody, V domains shown)
VH: EVQLVESGGGLVQPGGSLRLSCAASGFTFDDYAMHWVRQAPGKGLEWVSGIGWSSGSIGYADSVKGRFTISRDNAKNSLYLQMDSLRPEDSALYYCAKAYTFMITLYFDYWGQGTLVTVSS
VL: not shown
- 100 nM Monkey PD-1-mFc Bound [1]: 58 RU
- t½ [1]: 84 min
- 100 nM Monkey PD-1-mFc Bound [2]: 24 RU

B12: H2aM7788N (antibody, mouse IgG2a, V domains shown)
VH: EVQLVESGGGLVQPGGSLRLSCGASGFTFRNYDMHWVRQITGKGLEWVSAIGSAGDTYYPDSVKGRFTISRENAKNSLYLQMNSLRVGDTAVYYCTRDIHCSSTRCYGMDVWGQGTTVTVSS
VL: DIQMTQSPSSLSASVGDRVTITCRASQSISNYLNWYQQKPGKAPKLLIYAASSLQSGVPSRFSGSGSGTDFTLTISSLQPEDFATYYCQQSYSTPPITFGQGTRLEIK
notes: mouse IgG2a Fc; human variable regions; also called H2M7788N
- binding of the mixture of 100 nM hPD-1-mFc and 500 nM antibody [4]: 0 nm

B13: H1M7799N (antibody, mouse IgG1, V domains shown)
VH: EVQLVESGGGLVQPGGSLRLSCAASGFTVSNNYMSWVRQAPGKGLEWVSVIYSGGFTYYTDSVKGRFTISRHNSKNTLYLQMNSLRAEDTAVYYCARYYYDTSDYWTFFDYWGQGTLVTVSS
VL: EIVMTQSPATLSVSPGERATLSCRASQSVSSNLAWYQQKPGQAPRLLIYGASTRATGIPARFSGSGSGTEFTLTISSLQSGDFAVYYCQQYNNWPLTFGGGTKVEIN
notes: mouse IgG1 Fc; human variable regions
- binding of the mixture of 100 nM hPD-1-mFc and 500 nM antibody [4]: 0 nm

B14: H1M7800N (antibody, mouse IgG1, V domains shown)
VH: EVQLVESGGGLVQPGGSLRLSCAASGFTVSNNYMSWVRQAPGKGLEWVSVIYSGGFTYYTDSVKGRFTISRHNSKNTLYLQMNSLRAEDTAVYYCARYYYDTSDYWTFFDYWGQGTLVTVSS
VL: EIVMTQSPATLSVSPGERATLSCRASQSVSSNLAWYQQKPGQAPRLLIYGASTRATGIPARFSGSGSGTEFTLTISSLQSGDFAVYYCQQYNNWPLTFGGGTKVEIN
notes: as for B13
- binding of the mixture of 100 nM hPD-1-mFc and 500 nM antibody [4]: 0 nm

B15: H2aM7796N (antibody, mouse IgG2a, V domains shown)
VH: QVQLVESGGGVVQPGRSLRLSCAASGFTFSSYGMHWVRQAPGKGLEWVAIIWSDGDSEYNLDSVKGRFTISRDNSKNTLYLQMNSLRVEDSAVYYCARDRDLEDIWGQGTMVTVSS
VL: DIQMTQSPSSLSASVGDRVTITCRASQGIRNDLGWYQQKPGKAPKRLIYAASNLQSGVPSRFSGSGSGTEFTLTISSLQPEDFATYYCLQHNSYPLTFGGGTKVEIK
notes: mouse IgG2a Fc; human variable regions; also called H2M7796N
- binding of the mixture of 100 nM hPD-1-mFc and 500 nM antibody [4]: -0.02 nm

B16: H2aM7794N (antibody, V domains shown)
VH: QLQLQESGPDLVKPSDTLSLTCTVSDDSISSTTYYWAWIRQPPGKGLEWIGSMSYNGNNYYNPSLKSRVAISAGTSQKQFSLKLTSVTAADTAVYHCARHLGYNGNWYPFDFWGQGILVTVSS
VL: not shown
notes: mouse IgG2a Fc; human variable regions; also called H2M7794N
- binding of the mixture of 100 nM hPD-1-mFc and 500 nM antibody [4]: -0.01 nm

B17: H4xH8992P (antibody, V domains shown)
VH: EVQLVESGGGLVQPGRSLRLSCVASGFALHDYAMHWVRQVPGKGLEWVSSISWNSGVIGYADSLKGRFTISRDNAKNSLYLQMNSLRAEDTALYYCAKGSGSYYVSWFDPWGQGTLVTVSS
VL: not shown
notes: as for B1
- 100 nM Monkey PD-1-mFc Bound [1]: 122 RU
- t½ [1]: 46 min
- 100 nM Monkey PD-1-mFc Bound [2]: 86 RU
- t½ [2]: 8 min

B18: H4xH9035P (antibody, V domains shown)
VH: EVQLVESGGRVVRPGGSLRLSCAASGFTFDDYGMSWVRQLPGKGLEWVAGISWNDGKTVYAESVKGRFIISRDNAKNSLHLEMNSLRAEDTALYYCARDWQYLIDRYFDFWGQGTLVTVSS
VL: not shown
- 100 nM Monkey PD-1-mFc Bound [1]: 78 RU
- t½ [1]: 116 min
- 100 nM Monkey PD-1-mFc Bound [2]: 40 RU
- t½ [2]: 19 min

B19: H4xH9119P2 (antibody, V domains shown)
VH: EVQLVESGGGLVQPGRSLRLSCAASGFTFEDYAMHWVRQAPGKGLEWVSGIGWSNVKIGYADSVKGRFTISRDNVRNSLYLQMNSLRTEDTAFYYCVKAYTSMLTLYFDYWGQGTLVTVSS
VL: not shown
notes: as for B1
- 100 nM Monkey PD-1-mFc Bound [1]: 83 RU
- t½ [1]: 67 min
- 100 nM Monkey PD-1-mFc Bound [2]: 40 RU
- binding of the mixture of 100 nM hPD-1-hFc and 500 nM antibody [3]: -5 RU

B20: H4xH9048P2 (antibody, V domains shown)
VH: QVQLVQSGAEVKRPGSSVKVSCKVSGVTFRNFAIIWVRQAPGQGLEWMGGIIPFFSAANYAQSFQGRVTITPDESTSTAFMELASLRSEDTAVYYCAREGERGHTYGFDYWGQGTLVTVSS
VL: not shown
- 100 nM Monkey PD-1-mFc Bound [1]: 115 RU
- t½ [1]: 63 min
- 100 nM Monkey PD-1-mFc Bound [2]: 84 RU

B21: H2aM7791N (antibody, mouse IgG2a, V domains shown)
VH: QMQLQQWGAGLLKPSETLSLTCVVYGGSLNGYYWSWIRQSPGKGLEWIGEIDHSGSTNYNPSLKNRVTMSVDTSKIQFSLKLTSVTVADTAVYYCAREGLLPFDYWGQGTLVTVSS
VL: EIVLTQSPGTLSLSPGERVTLSCRASQSVYSNYLAWYQQNPGQAPRLLIYAASNRATGIPDRFSGSGSGTDFTLTISRLEPEDFAVYYCHQYATSPWTFGQGTKVEIK
notes: mouse IgG2a Fc; human variable regions; also called H2M7791N
- binding of the mixture of 100 nM hPD-1-mFc and 500 nM antibody [4]: 0.23 nm
